Source: IntAct's records for PubMed 17363896

B1: Kexin (Saccharomyces cerevisiae), P13134 (parent)
chain: MKVRKYITLCFWWAFSTSALVSSQQIPLKDHTSRQYFAVESNETLSRLEEMHPNWKYEHDVRGLPNHYVFSKELLKLGKRSSLEELQGDNNDHILSVHDLFPRNDLFKRLPVPAPPMDSSLLPVKEAEDKLSINDPLFERQWHLVNPSFPGSDINVLDLWYNNITGAGVVAAIVDDGLDYENEDLKDNFCAEGSWDFNDNTNLPKPRLSDDYHGTRCAGEIAAKKGNNFCGVGVGYNAKISGIRILSGDITTEDEAASLIYGLDVNDIYSCSWGPADDGRHLQGPSDLVKKALVKGVTEGRDSKGAIYVFASGNGGTRGDNCNYDGYTNSIYSITIGAIDHKDLHPPYSEGCSAVMAVTYSSGSGEYIHSSDINGRCSNSHGGTSAAAPLAAGVYTLLLEANPNLTWRDVQYLSILSAVGLEKNADGDWRDSAMGKKYSHRYGFGKIDAHKLIEMSKTWENVNAQTWFYLPTLYVSQSTNSTEETLESVITISEKSLQDANFKRIEHVTVTVDIDTEIRGTTTVDLISPAGIISNLGVVRPRDVSSEGFKDWTFMSVAHWGENGVGDWKIKVKTTENGHRIDFHSWRLKLFGESIDSSKTETFVFGNDKEEVEPAATESTVSQYSASSTSISISATSTSSISIGVETSAIPQTTTASTDPDSDPNTPKKLSSPRQAMHYFLTIFLIGATFLVLYFMFFMKSRRRIRRSRAETYEFDIIDTDSEYDSTLDNGTSGITEPEEVEDFDFDLSDEDHLASLSSSENGDAEHTIDSVLTNENPFSDPIKQKFPNDANAESASNKLQELQPDVPPSSGRS
partner: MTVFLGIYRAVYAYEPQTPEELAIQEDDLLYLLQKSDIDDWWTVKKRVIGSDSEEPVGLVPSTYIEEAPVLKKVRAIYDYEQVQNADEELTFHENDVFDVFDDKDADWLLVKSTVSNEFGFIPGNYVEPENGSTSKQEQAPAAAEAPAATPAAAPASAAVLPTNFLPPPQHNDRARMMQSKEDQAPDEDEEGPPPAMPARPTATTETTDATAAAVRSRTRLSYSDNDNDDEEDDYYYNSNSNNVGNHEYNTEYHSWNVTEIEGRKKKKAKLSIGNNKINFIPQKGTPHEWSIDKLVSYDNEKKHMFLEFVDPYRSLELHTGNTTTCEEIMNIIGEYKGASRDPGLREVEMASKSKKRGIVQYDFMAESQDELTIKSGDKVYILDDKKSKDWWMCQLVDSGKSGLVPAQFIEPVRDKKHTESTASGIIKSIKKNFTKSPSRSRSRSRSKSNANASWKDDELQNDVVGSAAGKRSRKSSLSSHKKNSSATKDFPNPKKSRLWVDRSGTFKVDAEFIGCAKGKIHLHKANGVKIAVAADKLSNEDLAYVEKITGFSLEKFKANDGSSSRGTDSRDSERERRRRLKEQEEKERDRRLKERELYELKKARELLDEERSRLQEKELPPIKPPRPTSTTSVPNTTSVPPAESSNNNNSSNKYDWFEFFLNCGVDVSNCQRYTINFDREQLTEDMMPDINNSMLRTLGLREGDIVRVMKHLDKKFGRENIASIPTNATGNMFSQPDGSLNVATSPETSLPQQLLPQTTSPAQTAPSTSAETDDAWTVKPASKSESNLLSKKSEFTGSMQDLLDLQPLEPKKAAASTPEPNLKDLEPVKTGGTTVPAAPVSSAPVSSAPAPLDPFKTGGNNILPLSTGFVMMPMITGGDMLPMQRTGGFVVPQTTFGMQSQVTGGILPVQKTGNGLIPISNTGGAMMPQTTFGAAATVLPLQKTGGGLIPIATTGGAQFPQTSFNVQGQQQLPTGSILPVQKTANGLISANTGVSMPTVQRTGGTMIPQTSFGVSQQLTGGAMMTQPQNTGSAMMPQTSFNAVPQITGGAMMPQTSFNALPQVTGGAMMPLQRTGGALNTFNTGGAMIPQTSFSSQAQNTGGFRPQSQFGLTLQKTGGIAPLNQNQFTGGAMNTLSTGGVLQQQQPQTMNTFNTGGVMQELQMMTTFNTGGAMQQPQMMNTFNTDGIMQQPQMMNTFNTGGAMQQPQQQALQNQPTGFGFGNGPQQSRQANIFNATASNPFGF
B2: Actin cytoskeleton-regulatory complex protein SLA1 (Saccharomyces cerevisiae), P32790 (parent)
chain: B1 partner
partner: B1 chain

Variants of: B1
Settings: with sla1_yeast SLA1, P32790

effect of a mutation on the interaction	Variant
decreasing interaction	D781A

Variants of: B1
Settings: with sla1_yeast SLA1, P32790
Remark: another data set of the same source

effect of a mutation on the interaction	Variant
disrupting interaction	F779A

Variants of: B2
Settings: with kex2_yeast KEX2, P13134

effect of a mutation on the interaction	Variant
disrupting interaction	K525A

Variants of: B2
Settings: with kex2_yeast KEX2, P13134
Remark: another data set of the same source

effect of a mutation on the interaction	Variant
decreasing interaction	K525A

Variants of: B2
Settings: with kex2_yeast KEX2, P13134
Remark: another data set of the same source

effect of a mutation on the interaction	Variant
disrupting interaction	V529E

Variants of: B2
Settings: with kex2_yeast KEX2, P13134
Remark: another data set of the same source

effect of a mutation on the interaction	Variant
decreasing interaction	V529E

Variants of: B2
Settings: with kex2_yeast KEX2, P13134
Remark: another data set of the same source

effect of a mutation on the interaction	Variant
disrupting interaction	F507A

Variants of: B2
Settings: with kex2_yeast KEX2, P13134
Remark: another data set of the same source

effect of a mutation on the interaction	Variant
disrupting interaction	I531E
